The term EC50 denotes the concentration that produces a half-maximal response. As usually defined, the IC50 is the midpoint of a concentration-inhibition curve. The term Kd denotes the free concentration of one partner at which half of the binding sites on the other are occupied at equilibrium, for simple one-to-one binding. The koff is the rate constant with which the complex falls apart. One may read the kon as the rate constant with which the complex forms.

Experiment [1] addresses T1, human TIGIT recombinant protein (human, UniProt Q495A1 22-141, limits assumed).
T1 construct: construct not described; also called human TIGT recombinant protein
T1 sequence (looked up): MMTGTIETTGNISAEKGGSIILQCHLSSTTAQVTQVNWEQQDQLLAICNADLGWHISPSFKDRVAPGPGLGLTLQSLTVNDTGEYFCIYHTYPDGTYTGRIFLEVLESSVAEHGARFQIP
As to the kind of experiment: ELISA, coated antigen. On the procedure:
(§1) A human, cynomolgus monkey, or mouse PVRIG protein (at a concentration of 1 μg/mL) was coated on a 96-well microplate at 100 μL per well, and incubated overnight at 4° C. The plate was washed three times with wash buffer at 250 μL per well. For each wash, the plate was shaken for 10 s to ensure adequate cleaning. A blocking solution (PBS+0.05% Tween20+1% BSA) was added at 300 μL/well, and the plate was incubated at room temperature for 1 h. The plate was washed three times with wash buffer at 250 μL per well. For each wash, the plate was shaken for 10 s to ensure adequate cleaning. Dilutions of the test anti-PVRIG antibodies were added at 100 μL/well. The plate was incubated at 37° C. for 1 h. The plate was washed three times with wash buffer at 250 μL per well. The […] anti-human IgG secondary antibody (Sigma, A8667) was added at 100 μL per well. The plate was incubated at 37° C. for 1 h. The plate was washed three times with wash buffer at 250 μL per well. TMB was added at 100 μL/well, and the plate was incubated in the dark for 15 min. 0.16 M sulfuric acid was added at 50 μL/well. The OD values at 450 nm were read by using a Thermo MultiSkanFc microplate reader, and the EC₅₀ values of the binding of the anti-PVRIG antibodies to PVRIG were calculated.
(§2) Similarly to Examples 4, 5 and 6, the binding of humanized anti-PVRIG/TIGIT bispecific antibodies to human and cynomolgus monkey TIGIT and blocking of binding of human TIGIT to ligand were detected, where PVRIG protein was replaced with TIGIT and PVRL2 was replaced with PVR.

In experiment [2] the target is cynomolgus monkey TIGIT recombinant protein (cynomolgus monkey, UniProt A0A7N9I9V4 89-209). As to the kind of experiment: ELISA, coated antigen. On the procedure: as §1, §2
For orientation: An ELISA detects its analyte on a solid surface through an enzyme-linked reagent.

Experiment [3] has as its target T2, human TIGIT expressed on cells (human, UniProt Q495A1 22-244).
T2 construct: whole, on cells; also called cells overexpressing human TIGIT
T2 sequence (looked up): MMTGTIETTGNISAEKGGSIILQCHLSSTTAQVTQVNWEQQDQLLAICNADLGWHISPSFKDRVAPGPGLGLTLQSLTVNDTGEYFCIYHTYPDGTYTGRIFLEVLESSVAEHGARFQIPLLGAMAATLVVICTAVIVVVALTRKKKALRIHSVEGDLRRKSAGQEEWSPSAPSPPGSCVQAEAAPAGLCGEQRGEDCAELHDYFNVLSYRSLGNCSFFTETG
Description: FACS, cells overexpressing target. As to the method: (§3) The expression plasmid carrying human or cynomolgus monkey PVRIG gene sequence was transfected into HEK293 cells, and the over-expressing stable transfection monoclonal cell strain was obtained by antibiotic screening and infinite dilution. Overexpressing cells were seeded into a 96-well plate at 2×10⁵ cells/per well. The cells were centrifuged at 300 g for 5 min, the supernatant was then removed, 100 μL of the test antibody was added, and the mixture was incubated at 4° C. for 1 h. The mixture was centrifuged, the supernatant was removed, the plate was washed 3 times with 200 μL of wash buffer (PBS+2% FBS), and then 100 μL of an anti-human IgG secondary antibody (Invitrogen, A-11013) labeled with Alexa Fluor 488 diluted at 1:500 was added. The mixture was incubated at 4° C. for 1 h. The plate was centrifuged, and the supernatant was removed. The plate was washed 3 times with 200 μL of wash buffer (PBS+2% FBS). The cells were resuspended in 100 μL of PBS and tested on a flow cytometer (BD FACS Calibur or BD FACS Canto_II).
as §2
A general note: A flow cytometer gives signals particle by particle.

The target of experiment [4] is T3, cynomolgus monkey TIGIT expressed on cells (cynomolgus monkey, UniProt A0A7N9I9V4 89-312).
T3 construct: whole, on cells; also called cells overexpressing cynomolgus monkey TIGIT
As to the kind of experiment: FACS, cells overexpressing target. On the procedure:
as §3, §2

Experiment [5] addresses T1, human TIGIT recombinant protein. Description: competition ELISA; human TIGIT, competitor human PVR. As to the method: (§4) The h-PVRIG-mIgG2a Fc protein (at a concentration of 1 μg/mL) was coated on the 96-well microplate at 100 μL per well, and incubated overnight at 4° C. The plate was washed three times with wash buffer at 250 μL per well. For each wash, the plate was shaken for 10 s to ensure adequate cleaning. A blocking solution was added at 300 μL/well, and the plate was incubated at room temperature for 1 h. The plate was washed three times with wash buffer at 250 μL per well. For each wash, the plate was shaken for 10 s to ensure adequate cleaning. 50 μL of diluted test anti-PVRIG antibody and 50 μL of his-tagged ligand PVRL2 were added to each well, and the plate was incubated at 37° C. for 1 h. The plate was washed three times with wash buffer at 250 μL per well. The HRP-labeled anti-his-tagged secondary antibody (Genscrpit) diluted at 1:2000 was added at 100 μL per well. The plate was incubated at 37° C. for 1 h. The plate was washed three times with wash buffer at 250 μL per well. TMB was added at 100 μL/well, and the plate was incubated in the dark for 15 min. 0.16 M sulfuric acid was added at 50 μL/well. OD values at 450 nm were measured using a Thermo MμtLtiSkanFc microplate reader, and the IC₅₀ values of the anti-PVRIG antibodies blocking the binding of PVRIG to PVRL2 were calculated.
as §2

The target in experiment [6] is T4, human TIGIT antigen (AcroBiosystem, TIT-H52H3) (human, UniProt Q495A1 22-141).
T4 sequence (looked up): T1 sequence (looked up)
Description: SPR (Biacore X100), antibody captured on Protein A chip, 1:1 fit. From the text:
The affinity of the humanized bispecific antibodies for human PVRIG, cynomolgus monkey PVRIG and human TIGIT was detected using Biacore. Humanized bispecific antibodies were each captured on a Protein A biosensor chip (GE lifesciences, 29127557) of a Biacore instrument (Biacore X100, GE), and then human PVRIG antigen (AcroBiosystem, PVG-H52H4), cynomolgus monkey PVRIG antigen (SEQ ID NO: 1), or human TIGIT antigen (AcroBiosystem, TIT-H52H3) at a series of concentration gradients each flowed over the chip surface. The reaction signals were detected in real time using a Biacore instrument (Biacore X100, GE) to obtain association and dissociation curves. The data obtained from the experiment were fitted using the (1:1) Binding model with the BiacoreX100 evaluation software 2.0 GE to obtain affinity values (see Table 31).

Experiment [7] deals with T1, human TIGIT recombinant protein. As to the kind of experiment: ELISA, coated antigen. As to the method:
as §1
(§5) The experiments were carried out according to the methods of Example 4, Example 5 and Example 6 (corresponding receptors and ligands were replaced with human TIGIT and human PVR), and the results are shown in Table 27.
The source holds these as a separate data set.

Experiment [8] deals with T2, human TIGIT expressed on cells. Description: FACS, cells overexpressing target. On the procedure: as §3, §5
The source holds these as a separate data set.

For experiment [9], the target named is T1, human TIGIT recombinant protein. As to the kind of experiment: competition ELISA; human TIGIT, competitor human PVR. On the procedure:
as §4, §5
This is another data set of the same source.

The target of experiment [10] is T5, his-tagged cynomolgus monkey PVRIG (cyno-PVRIG-his) recombinant protein (cynomolgus monkey).
T5 construct: expressed in HEK293, purified by Ni-NTA; also called Monkey PVRIG-his; cynomolgus monkey PVRIG recombinant protein
T5 chain: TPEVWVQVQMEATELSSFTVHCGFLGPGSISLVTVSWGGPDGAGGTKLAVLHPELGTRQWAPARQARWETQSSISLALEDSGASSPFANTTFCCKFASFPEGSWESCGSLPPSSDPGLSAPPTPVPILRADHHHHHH
As to the kind of experiment: ELISA, coated antigen. As to the method: as §1
(§6) Binding of the humanized anti-PVRIG/TIGIT bispecific antibodies to human and cynomolgus monkey PVRIG and their blocking of the ligand of human PVRIG were detected according to the methods of Examples 4, 5 and 6.

In experiment [11] the target is T6, cynomolgus monkey PVRIG expressed on cells (cynomolgus monkey, UniProt A0A2K5WVV8 1-322).
T6 construct: whole, on cells; also called Monkey PVRIG FACS; cells overexpressing cynomolgus monkey PVRIG
T6 sequence: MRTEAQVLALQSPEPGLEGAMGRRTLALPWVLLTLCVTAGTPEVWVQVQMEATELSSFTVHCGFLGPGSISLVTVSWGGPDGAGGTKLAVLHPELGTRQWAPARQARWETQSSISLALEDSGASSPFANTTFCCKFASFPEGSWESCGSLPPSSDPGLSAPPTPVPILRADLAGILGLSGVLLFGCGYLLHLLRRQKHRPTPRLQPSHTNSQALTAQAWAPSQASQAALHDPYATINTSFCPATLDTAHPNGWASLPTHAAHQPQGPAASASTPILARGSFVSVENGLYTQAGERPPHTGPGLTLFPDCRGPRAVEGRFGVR
Description: FACS, cells overexpressing target. As to the method: as §3, §6

Read-outs that look alike come from different tables or passages of the source.

B1: humanized anti-PVRIG/TIGIT bispecific antibody 1708-151H8 (bispecific antibody, human IgG4 S228P, kappa)
heavy: not shown
light: DIQMTQSPSSLSASVGDRVTITCRASENIYSYLAWYQQKPGKSPKLLIYNARTLAEGVPSRFSGSGSGTDFTLTISSLQPEDFATYYCQYHSGSPLPFGGGTKVEIKRTVAAPSVFIFPPSDEQLKSGTASVVCLLNNFYPREAKVQWKVDNALQSGNSQESVTEQDSKDSTYSLSSTLTLSKADYEKHKVYACEVTHQGLSSPVTKSFNRGEC
Turning to B1, the EC50 was 0.184 nM in experiment [1], 0.135 nM in experiment [2], 0.006 nM in [3] and 0.011 nM in [4]. Also, the IC50 in experiment [5] is 1.09 nM.

B2: humanized anti-PVRIG/TIGIT bispecific antibody 1708-39H2 (bispecific antibody, human IgG4 S228P, kappa)
heavy: not shown
light: B1 light
For the molecule B2, the EC50 in [1] is 0.135 nM; in experiment [2] it was 0.105 nM; in [3] it was 0.005 nM; in experiment [4], 0.005 nM. Besides, the IC50 in experiment [5] turned out to be 0.812 nM. Binding in experiment [6] was characterised by a dissociation constant (Kd) of 0.0808 nM. The same molecule came in with a koff in experiment [6] of 0.000113 s⁻¹. In experiment [6], this molecule gave a kon of 1.39e+06 M⁻¹ s⁻¹.

B3: anti-PVRIG/TIGIT bispecific antibody 1708-151-3 (bispecific antibody, human IgG4 S228P, kappa)
heavy: not shown
light: HVQLVESGGGSVQAGGSLRLSCVASASGFTYRPYCMAWFRQAPGKEREAVAGIDIFGGTTYADSVKGRFTASRDNAGFSLFLQMNDLKPEDTAMYYCAAGDSPDGRCPPLGQGLNYWGQGTQVTVSSGGGGSGGGGSDIQMTQSPSSLSASVGDRVTITCRASENIYSYLAWYQQKPGKSPKLLIYNARTLAEGVPSRFSGSGSGTDFTLTISSLQPEDFATYYCQYHSGSPLPFGGGTKVEIKRTVAAPSVFIFPPSDEQLKSGTASVVCLLNNFYPREAKVQWKVDNALQSGNSQESVTEQDSKDSTYSLSSTLTLSKADYEKHKVYACEVTHQGLSSPVTKSFNRGEC
B3: the EC50 in [7] is 0.069 nM; in experiment [8] it was 1.92 nM. Also, the 50% inhibitory concentration (IC50) in experiment [9] amounted to 0.62 nM.

B4: anti-TIGIT antibody 1708 (antibody, human IgG4 S228P, kappa, V domains shown)
VH: EVQLVQSGAEVKKPGASVKVSCKASGYTFTNYWMHWVRQAPGQGLEWMGRIDPDSTGSKYNEKFKTRVTMTRDTSTSTVYMELSSLRSEDTAVYYCAREGAYGYYFDYWGQGTLVTVSS
VL: DIQMTQSPSSLSASVGDRVTITCRASENIYSYLAWYQQKPGKSPKLLIYNARTLAEGVPSRFSGSGSGTDFTLTISSLQPEDFATYYCQYHSGSPLPFGGGTKVEIKR
notes: human IgG4 subtype with S228P; kappa light chain
With B4, the EC50 in experiment [7] worked out at 0.055 nM; in [1], 0.133 nM; in experiment [2], 0.104 nM; in [8], 0.74 nM; in experiment [3] it was 0.0027 nM; in experiment [4], 0.003 nM. In addition, the binding result in experiment [10] and in experiment [11] was “no binding” throughout. The IC50 in experiment [9] is 0.87 nM; in [5] it was 0.779 nM.

B5: anti-PVRIG/TIGIT bispecific antibody 1708-151-4 (bispecific antibody, human IgG4 S228P, kappa)
heavy: not shown
light: DIQMTQSPSSLSASVGDRVTITCRASENIYSYLAWYQQKPGKSPKLLIYNARTLAEGVPSRFSGSGSGTDFTLTISSLQPEDFATYYCQYHSGSPLPFGGGTKVEIKRTVAAPSVFIFPPSDEQLKSGTASVVCLLNNFYPREAKVQWKVDNALQSGNSQESVTEQDSKDSTYSLSSTLTLSKADYEKHKVYACEVTHQGLSSPVTKSFNRGECGGGGSGGGGSHVQLVESGGGSVQAGGSLRLSCVASASGFTYRPYCMAWFRQAPGKEREAVAGIDIFGGTTYADSVKGRFTASRDNAGFSLFLQMNDLKPEDTAMYYCAAGDSPDGRCPPLGQGLNYWGQGTQVTVSS
In the case of B5, the EC50 in experiment [7] is 0.054 nM; in [8], 1 nM. In addition, the half-maximal inhibitory concentration (IC50) in experiment [9] was 0.69 nM.

Values taken from patent US20240376207A1 (JIANGSU HENGRUI PHARMACEUTICALS, published 2024).
